Tested on: TrkB signaling (pTrkB, pAkt, pmTOR)
Experiment: Immunoblotting of TrkB/Akt/mTOR phosphorylation in primary neurons transfected with MDGA2, ΔMAM or V930I
Format: cell-based, mouse
Details: for pAkt level normalized to total protein / pTrkB level normalized to total protein / pmTOR level normalized to total protein: KO neurons transfected, WT/Ctrl set to one
Method: Fig 3 MDGA2 interacts with TrkB and suppresses TrkB activity. (A) Primary hippocampal neurons derived from Mdga2^ +/− (Het) mice and their wild-type (WT) littermates at DIV 7 were treated with different doses of BDNF for 30 min. Equal amounts of protein lysates were subjected to immunoprecipitation (IP) with an anti-TrkB antibody, followed by immunoblotting with an anti-phosphotyrosine (pTyr) antibody or the anti-TrkB antibody. The pTyr levels were quantified by densitometry, normalized to total TrkB levels, and then compared to those of WT controls. n = 3 per group. (B) WT mouse brain lysates were subjected to IP with an anti-MDGA2 antibody and a control IgG, and immunoblotted (IB) for the components indicated. mBDNF, mature BDNF; ImBDNF, immature BDNF. (C) Hippocampal neurons from WT mice at DIV 7 were immunostained with antibodies against MDGA2 (red) and TrkB (green), and then counter-stained with DAPI (blue). Images were acquired by a confocal microscope. Scale bar: 10 μm. (D) Surface plasmon resonance (SPR) analysis of the binding between recombinant MDGA2 protein and recombinant TrkB protein. TrkB was immobilized on a Biacore CM5 chip and tested for its binding with MDGA2 at the concentrations indicated. (E) Computer simulation of the binding mode of TrkB and MDGA2. The predicted binding domain of TrkB (the d5 domain) is highlighted by a red square and labeled in brown. The predicted binding domain of MDGA2 (the MAM domain) is highlighted by a red square and labeled in yellow. (F) HEK293T cells were co-transfected with TrkB-Flag and GFP-tagged full-length MDGA2 (MDGA2-GFP) or an MDGA2 deletion fragment lacking the entire MAM domain (ΔMAM-GFP). Cell lysates were subjected to IP with control IgG and antibodies against Flag or GFP, and immunoblotted for the components indicated. […] The scheme of MDGA2-ΔMAM is also shown. (G) HeLa cells were co-transfected with TrkB that is tagged with the N-terminal Venus fragment (TrkB-VN) and full-length MDGA2 or MDGA2-ΔMAM that are tagged with the C-terminal Venus fragment (MDGA2-VC or ΔMAM-VC) for 24 h. After immunostaining with antibodies against MDGA2/MDGA2-ΔMAM (pink) and TrkB (red), cells were observed by confocal microscopy. Venus signal (green) indicates the interaction between MDGA2 and TrkB. Schematic diagrams depicting the BiFC assay are also shown. Scale bars: 10 μm. (H, I) Equal amounts of protein lysates from primary neurons derived from Het, KO, and their WT littermate mice (H), and from WT primary neurons transfected with GFP control, MDGA2-GFP or ΔMAM-GFP (I) were subjected to IP with IgG and an anti-BDNF antibody, and then immunoblotted for the components indicated. Immunoprecipitated TrkB levels were quantified by densitometry, normalized to input levels, and compared to respective controls (set to one arbitrary units). n = 3 per group. (J) Neurons derived from KO mice were transfected with GFP control (Ctrl), MDGA2-GFP, or MDGA2-ΔMAM-GFP, and neurons derived from their WT littermates were transfected with GFP control (Ctrl). Equal amounts of protein lysates were subjected to immunoblotting for the proteins indicated. Levels of phosphorylated proteins were quantified by densitometry, normalized to respective total protein levels and compared to controls (set to one arbitrary units). n = 6 per group. Data represent mean ± SEM. P-values were determined by two-tailed unpaired Student t-test in (A) and one-way ANOVA with Tukey’s multiple comparisons test in (H, I, J). *p < 0.05, **p < 0.01, ***p < 0.001, ns: not significant. The data underlying this figure can be found in S1 Data, specifically in the sheet labeled “Figure 3”.
Fig 7 The autism spectrum disorder (ASD)-associated MDGA2 V930I mutation impairs the MDGA2-TrkB interaction and MDGA2’s inhibitory effect on the tyrosine kinase B (TrkB) signaling. (A) Schematic depiction of the WT human MDGA2 and its V930I mutation constructs that are tagged with GFP. […]

B1: MDGA2-ΔMAM: truncated form of MDGA2 lacking its MAM domain (protein)
chain: PPTVRIVHSGLACNIEEERYSERVYTIREGETLELTCLVTGHPRPQIRWTKTAGSASDRFQDSSVFNETLRITNIQRHQGGRYYCKAENGLGSPAIKSIRVDVYYLDDPVVTVHQSIGEAKEQFYYERTVFLRCVANSNPPVRYSWRRGQEVLLQGSDKGVEIYEPFFTQGETKILKLKNLRPQDYANYSCIASVRNVCNIPDKMVSFRLSNKTASPSIKLLVDDPIVVNPGEAITLVCVTTGGEPAPSLTWVRSFGTLPEKTVLNGGTLTIPAITSDDAGTYSCIANNNVGNPAKKSTNIIVRALKKGRFWITPDPYHKDDNIQIGREVKISCQVEAVPSEELTFSWFKNGRPLRSSERMVITQTDPDVSPGTTNLDIIDLKFTDFGTYTCVASLKGGGISDISIDVNISSSTVPPNLTVPQEKSPLVTREGDTIELQCQVTGKPKPIILWSRADKEVAMPDGSMQMESYDGTLRIVNVSREMSGMYRCQTSQYNGFNVKPREALVQLIVQYPPAVEPAFLEIRQGQDRSVTMSCRVLRAYPIRVLTYEWRLGNKLLRTGQFDSQEYTEYAVKSLSNENYGVYNCSIINEAGAGRCSFLVTGKAYAPEFYYDTYNPVWQNRHRVYSYSLQWTQMNPDAVDRIVAYRLGIRQAGQQRWWEQEIKINGNIQKGELITYNLTELIKPEAYEVRLTPLTKFGEGDSTIRVIKYSAPVNPHLREQDLATKNSVD
modifications: left off: GFP, end not stated, kept
notes: truncated form of MDGA2 lacking its MAM domain
With B1 the “pAkt level normalized to total protein” value (replicate 1) was 2.92 arbitrary units, the “pTrkB level normalized to total protein” value (replicate 1) was 2.14 arbitrary units and the “pmTOR level normalized to total protein” value (replicate 1) was 3.01 arbitrary units. The “pAkt level normalized to total protein” value (replicate 2) was 2.51 arbitrary units, the “pTrkB level normalized to total protein” value (replicate 2) was 2.17 arbitrary units and the “pmTOR level normalized to total protein” value (replicate 2) was 2.5 arbitrary units. For the same molecule, the “pAkt level normalized to total protein” value (replicate 3) was 2.41 arbitrary units, the “pTrkB level normalized to total protein” value (replicate 3) was 2.23 arbitrary units and the “pmTOR level normalized to total protein” value (replicate 3) was 2.06 arbitrary units. For the same molecule, the “pAkt level normalized to total protein” value (replicate 4) was 2.21 arbitrary units, the “pTrkB level normalized to total protein” value (replicate 4) was 2.41 arbitrary units and the “pmTOR level normalized to total protein” value (replicate 4) was 1.59 arbitrary units. For the same molecule, the “pAkt level normalized to total protein” value (replicate 5) was 1.76 arbitrary units, the “pTrkB level normalized to total protein” value (replicate 5) was 2.01 arbitrary units and the “pmTOR level normalized to total protein” value (replicate 5) was 1.49 arbitrary units. The “pAkt level normalized to total protein” value (replicate 6) was 1.68 arbitrary units, the “pTrkB level normalized to total protein” value (replicate 6) was 1.69 arbitrary units and the “pmTOR level normalized to total protein” value (replicate 6) was 1.31 arbitrary units. For the same molecule, the “overactivation of TrkB signaling (pTrkB, pAkt, pmTOR) upon expression” value (Mdga2-/- neurons, Fig 3J, n = 6) was “not MDGA2-ΔMAM”.

Source: article PMC11960969, “Mdga2 deficiency leads to an aberrant activation of BDNF/TrkB signaling that underlies autism-relevant synaptic and behavioral changes in mice” (PLOS Biology, 2025)
